The values below come from US20110097715, “METHOD FOR PURIFYING OR DETECTING A TARGET PROTEIN” (LFB - BIOTECHNOLOGIES, published 2011).

The term Kd denotes the equilibrium constant for the complex coming apart. A low value points to higher affinity.

In data set [1] the target is human plasma-derived factor VII (HP FVII) (Homo sapiens, UniProt P08709 P08709:61-466). Nature of the data set: SPR; Hepes 20 mM pH 8, NaCl 50 mM, CaCl2 2 mM, BSA 0.01%; aptamer immobilized via 3'-biotin on SA chip; allosteric binding model; FVII 50-400 nM. As to conditions: tags: plasma-derived, purity 99%; label: 3'-biotin. The source says: (§1) This aptamer is modified at the 3′-end thereof by grafting a biotin. Nucleotide bases in bold (SEQ no 1) are 2′O-methylated, which makes it possible to stabilize the aptamer by making it more resistant to nucleases. The aptamer was then immobilized onto an avidin-containing SA chip (Biacore GE). The aptamer was thus immobilized in an oriented manner through the 3′-end thereof with an immobilization rate of 2700 RU (where 1 RU does approximately correspond to 1 pg of immobilized product per mm²).
Some purified, human plasma-derived factor VII (HP FVII, purity: 99%) was diluted in run buffer (Hepes 20 mM pH=8, NaCl 50 mM, CaCl₂ 2 mM and BSA 0.01%) so as to obtain four samples with human plasma-derived factor VII concentration levels of 50, 100, 200 and 400 nM. Each sample was injected sequentially into the same immobilized aptamer-containing chip through a biotin-streptavidin interaction. Controls are obtained by injecting blanks which only contained the run buffer. All injections are performed at a flow rate of 20 μl/min for 120 sec, after injection of the run buffer into the chip at the same flow rate for 240 sec. […] A binding to the immobilized aptamer generates a signal increase expressed in resonance unit (RU) recorded by the device (FIG. 1). […] The modelling of the recorded interactions was made by means of the Biaevaluation software (GE).
On the technique in general: SPR reads the build-up and loss of mass on a sensor chip optically.

Data set [2] deals with rabbit plasma-derived factor VII (Oryctolagus cuniculus, UniProt P98139 P98139:40-444). Nature of the data set: SPR; complete absence of binding at 50-400 nM; same buffer (CaCl2 2 mM). Particulars: tags: American Diagnostica; label: 3'-biotin.
Description: as §1
Rabbit plasma-derived factor VII (American Diagnostica) was diluted in the same buffer as in Example 1 at concentration levels of 50, 100 200, 400 nM, thereafter was injected under the same conditions as in Example 1 into the same chip containing the immobilized aptamer.

rabbit plasma-derived factor VII, sequence (P98139 40-444, one chain of several): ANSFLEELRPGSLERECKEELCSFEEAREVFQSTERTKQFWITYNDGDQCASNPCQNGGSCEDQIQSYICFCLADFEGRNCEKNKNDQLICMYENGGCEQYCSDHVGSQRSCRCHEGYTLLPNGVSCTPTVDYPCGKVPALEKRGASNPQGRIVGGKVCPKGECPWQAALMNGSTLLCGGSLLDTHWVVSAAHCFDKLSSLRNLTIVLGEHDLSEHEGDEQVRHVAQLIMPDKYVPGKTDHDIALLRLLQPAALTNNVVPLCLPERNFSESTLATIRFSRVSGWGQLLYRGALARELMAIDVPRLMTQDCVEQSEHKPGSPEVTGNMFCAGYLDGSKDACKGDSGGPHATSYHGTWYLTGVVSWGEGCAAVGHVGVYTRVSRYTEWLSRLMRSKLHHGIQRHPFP
human plasma-derived factor VII (HP FVII), sequence (P08709 61-466, one chain of several): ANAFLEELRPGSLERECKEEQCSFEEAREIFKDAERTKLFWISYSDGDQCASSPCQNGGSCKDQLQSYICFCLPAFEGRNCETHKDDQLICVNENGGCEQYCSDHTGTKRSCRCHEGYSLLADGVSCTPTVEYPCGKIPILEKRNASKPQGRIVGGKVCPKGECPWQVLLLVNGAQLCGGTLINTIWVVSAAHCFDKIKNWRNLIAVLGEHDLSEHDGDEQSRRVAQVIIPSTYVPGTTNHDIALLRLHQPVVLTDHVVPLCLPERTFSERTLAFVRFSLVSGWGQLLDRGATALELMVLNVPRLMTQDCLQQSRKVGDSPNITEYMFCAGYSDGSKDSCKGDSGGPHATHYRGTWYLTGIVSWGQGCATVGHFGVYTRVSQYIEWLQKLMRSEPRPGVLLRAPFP

B1: anti-human FVII aptamer (SEQ no 1) (ssRNA)
RNA: GGGAGAGAGGAAGAGGGAUGGGAGCCUAUGUAACAGAUGCAGAUCCCUAGUCGUCCCAACACCAUAAC
modifications: 2'-OMe at bases shown in bold in the patent (positions not recoverable from text); 3'-biotin
Regarding B1, the Kd in data set [1] is 1400 nM. Further, in data set [2], the binding result is “no binding”.
